Measurements as given in patent US20250188136A1, “AV3 MUTANT POLYPEPTIDES FOR PEST CONTROL” (Vestaron Corporation, priority 2021, published 2025).
“And” between values parts separate entries of the source, which are not always exact repeats. Equal values may be shown once. “Also recorded” adds a separate entry of the source. Ends that are not written are not given here.

Columns and labels:
[1] = Proteolytic resistance of Av3b mutants during production-strain fermentation (rpHPLC); assay type: physicochemical; conditions: for Degradation?: mutant strain fermentation at pH 6.5, 140 hours, rpHPLC; for degradation product during fermentation (HPLC): production strain fermentation at pH 6.5, rpHPLC
Protocol: The mutants in the table below were evaluated for stability in fermentation beer. Fermentation conditions and HPLC analysis were performed as described above. The mutant production strains were generated using YCT306 K. lactis strain. The production of mutants was performed as described in Example 2; fermentation conditions were performed using the same fermentation process described above regarding the Av3b production strain, with pH control at pH 6.5. […] To identify the mutant with proteolytic resistance, the mutant strains were grown under the same fermentation conditions as Av3b, and samples were taken throughout the fermentation process. The samples taken at 140 hour of fermentation process were analyzed in rpHPLC.

[2] = DASbox small-scale fermentation, degradation by HPLC and LC/MS; assay type: physicochemical; conditions: DASbox fed batch fermentation runs
Protocol: DASbox® is a parallel bioreactor system (Eppendorf, 175 Freshwater Blvd, Enfield, CT 06082, USA). The DASbox system used here contains 8 fermentation vessels with 250 mL volume capacity, allowing 8 small scale fermentation runs simultaneously. The DASbox fermentation runs were performed according to the manufacturer's instructions, and using the fermentation conditions described herein.
The screening of the Av3b mutants was conducted using a fed batch process in aerobic bioreactor. Reactors were initially filled to ˜45% capacity with a rich culture media containing 5-20 g/L of a carbon source such as glucose, sorbitol, or lactose, 5-20 g/L phosphoric acid, 0.1-1.5 g/L Calcium sulfate, 5-15 g/L Potassium sulfate, 0.5-10 g/L Magnesium sulfate heptahydrate, 1-5 g/L potassium hydroxide, and 10-60 g/L of corn steep liquor. The temperature of the reactor was maintained between 25-35° C. for the duration of the fermentation. The pH was held constant between 4-5.5 with the addition of 15% ammonium hydroxide. Dissolved oxygen was held constant by sparging air between 0.5-1.5 volume/volume/min and by increasing agitation to maintain a set point of 10-30%.
Inoculation of the reactor was from an overnight seed culture containing 5-40 g/L of a carbon source such as glucose, sorbitol, or lactose, and 5-40 g/L of corn steep liquor. Inoculation percentage ranged from 5-20% of initial fill volume. Once inoculated, the reactor was fed with a 70% solution of the selected carbon source until the reactor was filled and/or desired supernatant peptide concentration was achieved, approximately 96-140 hours and 0.8-1.2 g/L, respectively.

Helicoverpa zea = test: Lepidoptera injection assay, corn earworm (CEW); assay type: in vivo; conditions: for KD50 CEW: third instar larva, 2 μL injection, scored at 24-hours post-injection; for knock-down effects compared to Av3b: CEW and FAW injection, KD50
Protocol: (§1) An injection assay was performed on Helicoverpa zea (corn earworm or “CEW”) and Spodoptera frugiperda (fall armyworm or “FAW”). Injections comprised a given Av3b mutant peptide combined with water to arrive at the planned dose. The Av3b mutants included Av3bM24; Av3bM165; Av3bM103; and Av3bM170. Av3b was used as a control.
(§2) Insects were reared on an artificial diet prepared from General Purpose Lepidoptera diet (Frontier Scientific, Newark, DE 19713, product No. F9772) according to the manufacturer's instructions. To perform the insect injection bioassay, 5 mL of hot diet was dispensed into the well of a rearing tray (Bio-Service Inc., Bio-RT-32), with 8 wells per injection treatment. The hot diet was then allowed to cool and solidify. Next, third instar larva were incubated on ice in order to immobilize them. Injections were prepared on a hand-microapplicator with injection solution (>100 μL) in 1-cc all-glass syringe having a 30 gauge straight needle. Air bubbles were removed from the syringe, and the syringe was set it up on the microapplicator. Injection volume was adjusted in the microapplicator at 2 μL.
(§3) To inject the larva, the insects were picked up and positioned close to the injection needle. The needle was allowed to penetrate the cuticle of the third pro-leg of the larva. The injection knob of the microapplicator was then rotated to inject a 2 μL solution into hemolymph from the third pro-leg. After injection the larva maintained on the needle for a few seconds to make sure the injected solution was absorbed. Then, the larva were gently removed from the needle and placed into the wells of prepared tray, along with 5 mL of solidified diet per well. Finally, the tray was sealed with vent covers.
(§4) Injected larva were incubated at 28° C. in an insect incubator, and scored at 24-hours post-injection based on their condition. Insect conditions were categorized as follows: alive (walking, eating, normal behavior); affected (showing toxic symptoms, such as tremors, writhing, unbalanced gait, or a combination thereof), knockdown (paralyzed albeit able to move with gentle poke); and dead (unmoving, discoloration, or a combination thereof).

Spodoptera frugiperda = test: Lepidoptera injection assay, fall armyworm (FAW); assay type: in vivo; conditions: third instar larva, 2 μL injection, scored at 24-hours post-injection
Protocol: as §1, §2, §3, §4

[3] = Circular dichroism assay, melting temperature; assay type: physicochemical; conditions: 10 mM Na3PO4 solution, pH 5.9; 20° C. to 98° C.
Protocol: A JASCO J-1500 CD spectrometer (JASCO, 28600 Mary's Court, Easton, MD 21601 USA) was used to measure the CD spectrum and the secondary structure information of the Av3bM24, Av3bM165, Av3bM103, and Av3bM170 peptides (with Av3b as a comparator). The peptides were prepared in 10 mM Na3PO4 solution, pH 5.9, and loaded into the cuvette for CD spectrum measurement. Measurements were processed with a light wavelength scan ranging from 180 nm to 250 nm, with a 1 nm interval; the temperature graduate changed from 20° C. to 98° C., with 2° C. interval.

[4] = Thermo-stability at 54° C. in pH 4.0 solution; assay type: physicochemical; conditions: for peptide change on day 14: pH 4.0, 54° C., HPLC peak area, + mass increase, − mass loss; for thermo-stability at 54° C.: pH 4.0 solution, up to 14 days
Protocol: A thermo-stability study was performed for Av3b, Av3bM24, Av3bM165, Av3bM103, and Av3bM170 in a pH 4.0 solution at 54° C. for 0, 3, 7, 10, 12, and 14 days, with a caffeine internal control to cancel variation from evaporation. Samples of 1 mL were prepared in 1.5 mL microtube with sodium acetate buffer (NaOAc) at pH 4.0, containing 0.1 μg/μL of peptide, and 0.025 μg/μL of caffeine. The samples were incubated at 54° C. in a dry mixer. At 0, 3, 7, 10, 12, and 14 days, 20 μL of each sample was analyzed via analytic rpHPLC system to evaluate peptide loss. Each sample contained a fixed amount caffeine, which was used to compensate the peptide HPLC UV absorbance peak change due to volume change by evaporation. FIG. 68.

[5] = Stability of Av3b mutants in insect gut extract; assay type: in vitro ADME, Helicoverpa zea; conditions: H. zea gut extract, room temperature
Protocol: To test the stability of the Av3b mutants in the gut enzymes of a lepidopteran pest, the gut extract were prepared from Helicoverpa zea (Corn Earworm or “CEW”). Corn Earworm insects were obtained commercially from Benzon Research (Carlisle, PA) as eggs. Hatched larvae were raised on artificial diet until ⅘^th instar (20 mm long) before guts were isolated. Before gut extraction, larvae were anesthetized using CO2. The larva was then pinned on the dissection plate at both the head and the tail. Using dissection scissors, the cuticle was nicked. The dissection scissors were then inserted into the nick and the […] along the insect. The cuticle was then carefully pulled back and pinned open to reveal the digestive track. Using DI water, the insect was thoroughly rinsed to remove hemolymph.
After the insect guts were extracted from the larva, they were spun at 15000 rpm for 5 minutes. The resulting supernatant is the “insect gut extract” that was used to determine peptide stability. Av3b mutant peptide was mixed with the gut extract to […] of 2 μg/μL, and incubated at room temperature. At time points between 0-100 hours, 6 μL of a given sample was mixed with 93 μL dH2O followed by the addition of 1 μL of a 2% trifluoracetic acid solution to stop the reaction. The sample was then analyzed by rpHPLC to determine the peptide loss during the gut extract treatment.

[6] = Stability of purified peptide spiked into Av3b fermentation beer (rpHPLC); assay type: physicochemical
Protocol: To determine the stability of the new mutants, Av3bM19, Av3bM23, Av3bM24, Av3bM25, Av3bM27, and Av3bM28 were purified and incubated in Av3b fermentation beer. The mutants were purified by cation-exchange chromatography using a GE SP-Sephadex C-25 column. The column was first calibrated with 30 mM sodium citrate buffer at pH 3.0. Then, the culture supernatant containing the secreted mutant peptide was loaded into the column to let the mutant peptide bind to the resin. The column was then washed with 30 mM sodium citrate buffer, pH 3.0, followed by washing with 30 mM sodium acetate, pH 4.0. Next, the bound mutant peptide was eluted by 1 M or 2 M NaCl with 30 mM sodium acetate, pH 4.0. The elution was then concentrated and buffer-exchanged to 30 mM sodium acetate, pH 4.0 using a 1 kD cutoff spin concentrator.
After purification, each of the mutants, Av3bM19, Av3bM23, Av3bM24, Av3bM25, Av3bM27, and Av3bM28, were evaluated for stability by spiking them into Av3b strain fermentation beer at pH 6.5. As a negative control, Av3b was evaluated in a pH 4.0 buffer. As a positive control, purified Av3b was evaluated by spiking into the same Av3b fermentation beer at pH 6.5. All stability experiments were performed at room temperature. […] The amount of peptide remaining relative to the beginning was determined by normalizing the peak area at different time to the one at 0 hour for each treatment. The degradation trend is visualized by the bar graph of the relative remaining peptide amount trend.

Sequence	Degradation? [1]	degradation product during fermentation (HPLC) [1]	degradation detected via HPLC and LC/MS [2]	KD50 CEW (Helicoverpa zea)	KD50 FAW (Spodoptera frugiperda)	CD Melting temperature [3] [°C]	peptide change on day 14 [4]	thermo-stability at 54° C. [4]	knock-down effects compared to Av3b (Helicoverpa zea)	time stable in solution at 54° C. ([4]; pH 4 NaOAc buffer, 54° C.) [days]	half conversion time to Av3b peptide [5] [min]	half-degradation time ([6]; Av3b production fermentation beer pH 6.5, room temperature (Example 11, FIG. 37))	half-degradation time ([6]; Av3b production fermentation beer pH 6.5, room temperature (Example 12, FIG. 39))	peptide remaining ([6]; fermentation beer pH 6.5, room temperature, 248 hours, HPLC peak area relative to starting amount) [%]	stability of peptide in pH 4 buffer (negative control) ([6]; pH 4 buffer, room temperature)
KSCCPCYWGGCPWGQNCYPEGCGGPG [Av3bM170]	No	did not show any degradation product	degradation was not detected	104 pmol/g	495±148 pmol/g and 495 ± 148 (N = 2) pmol/g	70	+4.6%	thermo-stable							
KSCCPCYWGGCPWGQNCYPEGCSGPG (ends and bridges not checked; cysteine pairing not given here) [Av3bM103]	No	did not show any degradation product; also recorded: prevent degradation	degradation was not detected	518 ± 390 (N = 2) pmol/g	879 pmol/g	82	−64.1%	not thermo-stable	comparable knock-down effects to Av3b	7					
KSCCPCYWGGCPWGQNCYPEGCSGPKVG [Av3bM165]	No	did not show any degradation product; also recorded: without apparent degradation products	degradation was not detected	389 pmol/g	578 pmol/g	80	+4.2%	thermo-stable	comparable knock-down effects to Av3b		5.3				
KSCCPCYWGGCPWGQNCYPEGCSGPK [Av3b, reference compound]		showed degradation during fermentation	degradation was detected	367 ± 166 (N = 6) pmol/g	883 ± 25 (N = 2) pmol/g	69.3	+8.3%	thermo-stable				46 h and 46.34 h	56 h and 56.087 h	3.8	no loss of the peptide; also recorded: stable in pH 4 buffer
